Source: patent US20130330358

Legend:
[1] = tested on: T1, vIRF4^202-216 peptide (vif1); test: competitive ITC: vIRF4^202-216 titrated into TRAF pre-titrated with MDM2^137-152 (competitor)
T1 sequence: SVWIPVNEGASTSGM

[2] = tested on: T1, vIRF4^202-216 peptide (vif1); test: competitive ITC: vIRF4^202-216 titrated into TRAF pre-titrated with p53^355-369 (competitor)
[3] = tested on: T1, vIRF4^202-216 peptide (vif1); test: competitive ITC: vIRF4^202-216 titrated into TRAF pre-titrated with p53^350-364 (competitor)

Chain of HAUSP TRAF domain (HAUSP^62-205) (Q93009 62-205): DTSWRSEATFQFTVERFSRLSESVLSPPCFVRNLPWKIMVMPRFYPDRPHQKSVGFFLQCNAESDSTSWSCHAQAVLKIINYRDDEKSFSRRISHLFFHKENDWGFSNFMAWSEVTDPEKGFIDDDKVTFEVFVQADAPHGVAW

Substance: HAUSP TRAF domain (HAUSP^62-205)
- Kobs (observed association constant) [1]: 1.09e+07 M⁻¹
- Kobs (observed association constant) [2]: 3.58e+07 M⁻¹
- Kobs (observed association constant) [3]: 4.42e+07 M⁻¹
